Test [1] has as its target T1, NY-ESO-1 peptide on HLA-A*02:01 (human).
T1 peptide: SLLMWITQC
Briefly: cytokine release.

The target in test [2] is T1, NY-ESO-1 peptide on HLA-A*02:01. Briefly: killing.

This note sets out measurements from US20190275081A1 (published 2019).

B1: JD (TCR, V domains shown)
Valpha: QKEVEQNSGPLSVPEGAIASLNCTYSDRGSQSFFWYRQYSGKSPELIMFIYSNGDKEDGRFTAQLNKASQYVSLLIRDSQPSDSATYLCAVGATNKLIFGTGTLLAVQP
Vbeta: EAGVTQFPSHSVIEKGQTVTLRCDPISGHDNLYWYRRVMGKEIKFLLHFVKESKQDESGMPNNRFLAERTGGTYSTLKVQPAELEDSGVYFCASSQAYGTEAFFGQGTRLTVV
As to B1, in test [1], the binding result was “recognises”.

B2: 19305DP (TCR, V domains shown)
Valpha: SQQGEEDPQALSIQEGENATMNCSYKTSINNLQWYRQNSGRGLVHLILIRSNEREKHSGRLRVTLDTSKKSSSLLITASRAADTASYFCATDGGGTLTFGKGTMLLVSP
Vbeta: DAGVIQSPRHEVTEMGQEVTLRCKPISGHDYLFWYRQTMMRGLELLIYFNNNVPIDDSGMPEDRFSAKMPNASFSTLKIQPSEPRDSAVYFCASKWGGTEAFFGQGTRLTVV
For the molecule B2, the binding result in test [2] is reported as “recognises”.

B3: AL (TCR, V domains shown)
Valpha: QKEVEQNSGPLSVPEGAIASLNCTYSDRGSQSFFWYRQYSGKSPELIMSIYSNGDKEDGRFTAQLNKASQYVSLLIRDSQPSDSATYLCAVGGLTSSNTGKLIFGQGTTLQVKP
Vbeta: DVKVTQSSRYLVKRTGEKVFLECVQDMDHENMFWYRQDPGLGLRLIYFSYDVKMKEKGDIPEGYSVSREKKERFSLILESASTNQTSMYLCASSNQIYGYTFGSGTRLTVV
Regarding B3, the binding result in test [2] is given as “recognises”.
